We go through 1 molecule from US20190225689A1 (Janssen / Centocor, published 2019).

The experiment has as its target T1, human programmed cell death protein 1, PD-1 (human, UniProt Q15116 25-288).
T1 construct: In the assay it was the endogenous PD-1 on circulating CD3+ T cells of treated patients; also called CD279; PDCD1
Kind of experiment: PD-1 receptor occupancy by flow cytometry on circulating CD3+ T cells of dosed patients. (Flow cytometry measures light scatter and fluorescence of single cells or particles in a stream.)

T1 sequence (Q15116 25-288 limits assumed): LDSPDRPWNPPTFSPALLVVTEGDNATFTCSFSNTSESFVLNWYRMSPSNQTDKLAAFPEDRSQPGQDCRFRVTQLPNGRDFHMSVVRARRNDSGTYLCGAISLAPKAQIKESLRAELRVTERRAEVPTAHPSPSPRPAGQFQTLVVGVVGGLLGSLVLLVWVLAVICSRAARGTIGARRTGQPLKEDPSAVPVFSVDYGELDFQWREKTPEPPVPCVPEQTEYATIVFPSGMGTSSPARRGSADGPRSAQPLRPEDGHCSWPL

B1: JNJ-63723283 (cetrelimab) (antibody, human IgG4 S228P, kappa, V domains shown)
VH: QVQLVQSGAEVKKPGSSVKVSCKASGGTFSSYAISWVRQAPGQGLEWMGGIIPIFDTANYAQKFQGRVTITADESTSTAYMELSSLRSEDTAVYYCARPGLAAAYDTGSLDYWGQGTLVTVSS
VL: EIVLTQSPATLSLSPGERATLSCRASQSVRSYLAWYQQKPGQAPRLLIYDASNRATGIPARFSGSGSGTDFTLTISSLEPEDFAVYYCQQRNYWPLTFGQGTKVEIKR
notes: IgG4/kappa antibody; also called study drug
As for B1, the binding result is on record as “binds”.
